Test results from publication PMC9875641, “Ophthalmic Solution of Smart Supramolecular Peptides to Capture Semaphorin 4D against Diabetic Retinopathy” (Advanced Science, 2022).

Target: soluble semaphorin 4D
Assay: SPR; surface plasmon resonance imaging (SPRi) of TPs and sSema4D; who was immobilised and the conditions are not told in the main text
Conditions: both partners purified

soluble semaphorin 4D, sequence (chain, as listed by the source): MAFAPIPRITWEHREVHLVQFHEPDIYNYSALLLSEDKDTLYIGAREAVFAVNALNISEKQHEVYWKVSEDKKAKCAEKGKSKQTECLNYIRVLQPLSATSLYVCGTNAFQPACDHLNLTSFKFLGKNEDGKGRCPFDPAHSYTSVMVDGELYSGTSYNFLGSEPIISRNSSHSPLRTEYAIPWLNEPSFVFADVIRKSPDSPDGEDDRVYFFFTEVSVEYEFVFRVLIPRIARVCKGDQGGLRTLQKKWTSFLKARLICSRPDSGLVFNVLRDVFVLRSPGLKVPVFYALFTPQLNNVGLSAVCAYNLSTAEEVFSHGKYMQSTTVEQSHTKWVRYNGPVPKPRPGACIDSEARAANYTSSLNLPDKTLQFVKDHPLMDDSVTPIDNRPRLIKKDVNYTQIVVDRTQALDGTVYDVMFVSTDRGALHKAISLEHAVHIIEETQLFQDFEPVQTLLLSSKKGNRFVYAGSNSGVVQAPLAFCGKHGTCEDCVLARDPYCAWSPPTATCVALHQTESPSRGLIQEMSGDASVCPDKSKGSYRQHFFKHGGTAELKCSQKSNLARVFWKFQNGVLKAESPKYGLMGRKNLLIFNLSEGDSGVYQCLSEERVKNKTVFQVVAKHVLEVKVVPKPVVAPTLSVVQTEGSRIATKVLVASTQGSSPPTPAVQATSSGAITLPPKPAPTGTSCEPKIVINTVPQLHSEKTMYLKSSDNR

B1: TP-2 (peptide)
chain: KQKRPRH
modifications: Limits taken by convention as the full extracellular domain after the signal peptide. Species is not printed for the assayed protein; human is assumed, mouse O09126 24-733 is the alternative. Natural
  Kd: 41.7 nM

B2: TP-7 (peptide)
chain: KNKAAKG
modifications: Limits taken by convention as the full extracellular domain after the signal peptide. Species is not printed for the assayed protein; human is assumed, mouse O09126 24-733 is the alternative. Natural
  Kd: 14.6 nM
